How the values were obtained:
CRD-BP (IMP1) (mouse) [1] = target: CRD-BP (IMP1) (mouse) (UniProt O88477); assay: EMSA; details: EMSA: 5 mM Tris-Cl pH 7.4, 2.5 mM EDTA, 2 mM DTT, 5% glycerol, 0.1 mg/ml BSA, 0.5 mg/ml yeast tRNA, 5 U RNasin; 30 C with ice steps; 40 nM RNA probe
CRD-BP (IMP1) (mouse) [2] = target: CRD-BP (IMP1) (mouse) (UniProt O88477); assay: competition; details: EMSA: 5 mM Tris-Cl pH 7.4, 2.5 mM EDTA, 2 mM DTT, 5% glycerol, 0.1 mg/ml BSA, 0.5 mg/ml yeast tRNA, 5 U RNasin; 30 C with ice steps; 40 nM RNA probe

Chain of CRD-BP (IMP1) (mouse) (O88477 whole entry): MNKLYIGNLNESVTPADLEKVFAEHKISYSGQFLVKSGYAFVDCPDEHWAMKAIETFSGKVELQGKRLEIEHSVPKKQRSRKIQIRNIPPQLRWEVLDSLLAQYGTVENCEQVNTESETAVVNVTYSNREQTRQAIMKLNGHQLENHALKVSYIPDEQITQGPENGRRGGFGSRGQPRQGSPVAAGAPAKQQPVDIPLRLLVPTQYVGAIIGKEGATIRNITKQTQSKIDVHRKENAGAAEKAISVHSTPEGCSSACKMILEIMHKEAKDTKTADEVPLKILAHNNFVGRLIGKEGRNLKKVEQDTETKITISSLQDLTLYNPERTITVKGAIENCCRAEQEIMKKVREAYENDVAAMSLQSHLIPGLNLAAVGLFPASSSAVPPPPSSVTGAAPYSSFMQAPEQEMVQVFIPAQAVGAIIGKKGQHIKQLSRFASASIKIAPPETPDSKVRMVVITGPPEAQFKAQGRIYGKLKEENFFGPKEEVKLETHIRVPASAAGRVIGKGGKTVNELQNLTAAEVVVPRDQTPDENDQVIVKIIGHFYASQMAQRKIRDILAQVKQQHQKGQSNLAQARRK

**Q.** How did the binding signal (CRD-BP (IMP1) (mouse) [1]) turn out when “GGAAAUUAGGGCCCAAUUAAUAAUCAGCAAGAAUUUGAUCGUUCCAGUUCCCACUUGGAGGC [P2 RNA]” was run?
**A.** 5 % bound

**Q.** “GGAAAUUAGGGCCCAAUUAAUAAUCAGCAAGAAUUUGAUCGUUCCAGUUCCCACUUGGAGGCCUUUCAUCCCUCGGGUGUGCUAUGGAUGGCUUCUAACAAAAACUACACAUAUGUAUUCCUGAUCGCCAACCUUUCCCCCACCAGCUAAGGACAUUUCCCAGGGUUAAUAGGGCCUGGUCCCUGGGAGGAAAUUU [CD44 Fragment 4 RNA]” was tested. Which binding (CRD-BP (IMP1) (mouse) [2]) did it give?
**A.** binds

**Q.** What about the Kd (CRD-BP (IMP1) (mouse) [1]) of the same sequence?
**A.** 645 nM

**Q.** “GGAAAUUAGGGCCCAAUUAAUAAUCAGCAAGAAUUUGAUCGUUCCAGUUCCCACUUGGAGGCCUUUCAUCCCUCGGGUGUGCUAUGGAUGGCUUCUAACAAAAACUACACAUAUGUAUUCCUGAUCGCCAACCUUUCCCCCACCAGCUAA [P5 RNA]” was tested. Which binding signal (CRD-BP (IMP1) (mouse) [1]) did it give?
**A.** 15 % bound

**Q.** For “GGAAAUUAGGGCCCAAUUAAUAAUCAGCAAGAAUUUGAUCGUUCCAGUUCCCACUUGGAGGCCUUUCAUCCCUCGGGUGUGCUAUGGAUGGCUUCUAACAAAAACUACACAUAUGUAUUCCU [P4 RNA]”, which binding (CRD-BP (IMP1) (mouse) [1]) is on record?
**A.** no binding

**Q.** With “GGAAAUUAGGGCCCAAUUAAUAAUCAGCAAGAAUUUGAUCGUUCCAGUUCCCACUUGGAGGCCUUUCAUCCCUCGGGUGUGCUAUGGAUGGCUUCUAACAAAAACUACACAUAUGUAUUCCUGAUCGCCAACCUUUCCCCCACCAGCUAAGGACAUUUCCCAGGGUUAAUAGGGCCUGGU [P6 RNA]” as the sequence, how does the binding (CRD-BP (IMP1) (mouse) [1]) read?
**A.** binds

Reference: PMC3951440, “Assessing Specific Oligonucleotides and Small Molecule Antibiotics for the Ability to Inhibit the CRD-BP-CD44 RNA Interaction” (PLoS ONE, 2014)
